Measured values reported in the DeepSol protein solubility set.

test: soluble on expression in E. coli; label from the status in PepcDB or PDB records

Sequence	soluble on expression in E. coli
MYIPPYKADDQDIVVELNSRFGAETFTVQPTRTGMPVLWVPRERLIEVLTFLRQVPKPYVMLYDLHGVDERLRTHRRGLPSADFSVFYHLMSLERNSDVMIKVALSERDLNLPTATRIWPNANWYEREVWDMYGITFTGHPHLTRMLMPPTWQGHPLRKDYPARATEFDPYSLSAAKQDLEQEALRFKPEDWGMKRHGENEDYMFLNLGPNHPSAHGAFRIILQLDGEEIIDCVPEIGYHHRGAEKMAERQSWHSFIPYTDRIDYLGGVMNNLPYVLSVEKLAGIKVPQRVDVIRIMMAEFFRILNHLLYLGTYIQDVGAMTPVFFTFTDRQRAYKVVEAITGFRLHPAWYRIGGVAHDLPRGWDKLVREFLDWMPKRLDEYETAALKNSILRGRTIGVAQYNTKEALEWGTTGAGLRATGCDFDLRKARPYSGYENFEFEVPLAHNGDAYDRCMVKMGEMRQSLRIIEQCLKNMPEGPYKADHPLTTPPPKERTLQHIETLITHFLQVSWGPVMPANEAFQMIEATKGINSYYLTSDGSTMSYRTRIRTPSFAHLQQIPSVINGSM	not soluble
MGRGRKHTDAAAEQRELAIKANIVDEPFSVSAIDRSIRKAEWVKTETDQILSGRCPETDGTWLGISTRGRVAFLVEAGTINRDRFNGAESRTLEFLESNESPEDFAKSSAADYIRNKNTAAFHLIVADIASNSMLYISKPRFSDYGIVYTEPVGPGVHTLSSAGLDSDVGYRDLRMRHSFCEMINRERLPPIRDIAEIMYDPVKAYESVLLSSIFFVDMKIGYEHYGTRITTALVVKRTKEVLFFERYREIFNDDWDDHDFAFTII	not soluble
MNKVKILAIVGSLRKGSYNRQLALAAKEIVKDTADFTLLDYQDVPLMNEDIEYPAPDAVKRVREEVKAADGIWFFTPEYNHFFPGVLKNLIDWLSRPVSENEPQVLAGKPAAISGISLGMSGTAIAQDHLVTLISFLDMKVMNVPRVTVPNAWQYVDDQGKLIMESIYPHLEKQAKAFVNFIQAKCL	not soluble
MSLKKMSIKVPGKLFFAGEYSVTKEGNLALITTIETNFEVRISATTGKSIFKTNVGLSDFEFSLSKIEFTKENPWNFALTALKNTLSAADSFEKKSVSKILSSSPEISLEIVSDLGFGENKKGYGSSASVVCGLVNAVNQFFDFQLSLEKRFEIAAKTHFEVQGSGSMGDIAAIMYGGSVFYQNHKRVIPLEIPWATYVVQTGKAAKTSEKIKIKLSDEFYQASNELVIELATAIDIQDFALFKEKLSENQLLLLENIPEGYMTKELAIALNLLNSYPEFAAKISGAGFGENIILFAQNTQAIAEVQNKLSEYGINLEKFKVAQKNNEGHHHHHH	soluble
RGSHHHHHHGSFTPSGTTGTTKLTVTEECQVRVGDLTVAKTRGQLTDAAPIGPVTVQALGCNARQVALKADTDNFEQGKFFLISDNNRDKLYVNIRPMDNSAWTTDNGVFYKNDVGSWGGTIGIYVDGQQTNTPPGNYTLTLTGGYWAK	soluble
SKLYDINNEIFEDLGAEKRELIQPNDVPQLLKDAIVSVEDRRFYKHIGVDPIRIIGSALSNVKNGGLQGGSTLTQQLIKLSYFSTKESDQTLKRKAQEAWMAVRLEREKSKEEILTYYINKVYMANGFYGMETAAENYYGKHLSELDLPQTALLAGMPQAPNSYDPYTKP	not soluble
SIRFVIDREECFSHKAEYEGDTLHVSFVVIKSDSQWHFNEDGVDLVIHGPTGEQIHDFREQISAKHDFVVQKKGVYRFCFTNKSPYHETIDFDVQLGHFAYYDQHAKDEHFTPLMEQISKLEEALYNIQFEQHWLEAQTDRQAIVNENMSKRAVHKALFESFALIGASFLQVYLLRRLFERKLGMSRV	soluble
MEQATQQIAISDAAQAHFRKLLDTQEEGTHIRIFVVNPGTPNAECGVSYCPPNAVEESDIEMKYNTFSAFIDEVSLPFLEEAEIDYVTEELGAQLTLKAPNAKMRKVADDAPLIERVEYVIQTQINPQLANHGGRITLIEITEDGYAVLQFGGGCNGCSMVDVTLKDGVEKQLVSLFPNELKGAKDITEHQRGEHSYYLEHHHHHH	soluble
MLGKLPQQANDYLNSFNWERQVSHAKEKLTALTKKYRITENDIQIALDDAKINFNEKLSQLQTYMI	not soluble
MGKIGIFFGTDSGNAEAIAEKISKAIGNAEVVDVAKASKEQFNSFTKVILVAPTAGAGDLQTDWEDFLGTLEASDFANKTIGLVGLGDQDTYSETFAEGIFHIYEKAKAGKVVGQTSTDGYHFEASKAVEGGKFVGLVIDEDNQDDLTDERISKWVEQVKGSFA	soluble
MANPRGFCAGVDRAISIVENALAIYGAPIYVRHEVVHNRYVVDSLRERGAIFIEQISEVPDGAILIFSAHGVSQAVRNEAKSRDLTVFDATCPLVTKVHMEVARASRRGEESILIGHAGHPEVEGTMGQYSNPEGGMYLVESPDDVWKLTVKNEEKLSFMTQTTLSVDDTSDVIDALRKRFPKIVGPRKDDICYATTNRQEAVRALAEQAEVVLVVGSKNSSNSNRLAELAQRMGKHAFLIDDAKDIQEEWVKEVKCVGVTAGASAPDILVQNVVARLQQLGGGEAIPLEGREENIVFEVPKELRVDIREVD	not soluble
MFSAGHKIKGTVVLMPKNELEVNPDGSAVDNLNAFLGRSVSLQLISATKADAHGKGKVGKDTFLEGINTSLPTLGAGESAFNIHFEWDGSMGIPGAFYIKNYMQVEFFLKSLTLEAISNQGTIRFVCNSWVYNTKLYKSVRIFFANHTYVPSETPAPLVSYREEELKSLRGNGTGERKEYDRIYDYDVYNDLGNPDKSEKLARPVLGGSSTFPYPRRGRTGRGPTVTDPNTEKQGEVFYVPRDENLGHLKSKDALEIGTKSLSQIVQPAFESAFDLKSTPIEFHSFQDVHDLYEGGIKLPRDVISTIIPLPVIKELYRTDGQHILKFPQPHVVQVSQSAWMTDEEFAREMIAGVNPCVIRGLEEFPPKSNLDPAIYGDQSSKITADSLDLDGYTMDEALGSRRLFMLDYHDIFMPYVRQINQLNSAKTYATRTILFLREDGTLKPVAIELSLPHSAGDLSAAVSQVVLPAKEGVESTIWLLAKAYVIVNDSCYHQLMSHWLNTHAAMEPFVIATHRHLSVLHPIYKLLTPHYRNNMNINALARQSLINANGIIETTFLPSKYSVEMSSAVYKNWVFTDQALPADLIKRGVAIKDPSTPHGVRLLIEDYPYAADGLEIWAAIKTWVQEYVPLYYARDDDVKNDSELQHWWKEAVEKGHGDLKDKPWWPKLQTLEDLVEVCLIIIWIASALHAAVNFGEYPYGGLIMNRPTASRRLLPEKGTPEYEEMINNHEKAYLRTITSKLPTLISLSVIEILSTHASDEVYLGQRDNPHWTSDSKALQAFQKFGNKLKEIEEKLVRRNNDPSLQGNRLGPVQLPYTLLYPSSEEGLTFRGIPNSISI	soluble
MGSDKIHHHHHHMPHHQPCPPASSLSAGPRGGVIMLILKNVTAVQLHPAKVQEGVDIAIENDVIVAIGDALTQRYPDASFKEMHGRIVMPGIVCSHNHFYSGLSRGIMANIAPCPDFISTLKNLWWRLDRALDEESLYYSGLICSLEAIKSGCTSVIDHHASPAYIGGSLSTLRDAFLKVGLRAMTCFETTDRNNGIKELQEGVEENIRFARLIDEAKKATSEPYLVEAHIGAHAPFTVPDAGLEMLREAVKATGRGLHIHAAEDLYDVSYSHHWYGKDLLARLAQFDLIDSKTLVAHGLYLSKDDITLLNQRDAFLVHNARSNMNNHVGYNHHLSDIRNLALGTDGIGSDMFEEMKFAFFKHRDAGGPLWPDSFAKALTNGNELMSRNFGAKFGLLEAGYKADLTICDYNSPTPLLADNIAGHIAFGMGSGSVHSVMVNGVMVYEDRQFNFDCDSIYAQARKAAASMWRRMDALA	not soluble
MRARSSLSAGQREELVALFEQGYSYWAAAHHVGVGVYPVRALFRRFLLHGKLCLVEKPSKQQYSFEIKKEVVQRHLAGESKMDLAREFGLSSDQMVGYWSRKWRKGGDDALKLKPKGRPKGSAKPKVLTEEDKLRRENERLRAENAYLKKLRDLKNQGHALEHHHHHH	not soluble
MSLNDDYPVVLAAPTGRASKRLQESTGLEAMTIHRLIGWNQDTKPEDILENEINARLIIIDEMSMVDTWLFHQFLSAVPLDAQLIFVGDEDQLPSVGPGQVFKDLIESKAIPRVNLTEVYRQQDGSSIIELAHRMKLGQKIDITQRFHDRSFINCQANQIPTVVEKVVTSAVNKGYTMADIQVLAPMYKGNAGIKRLNQVLQDILNPKKKDTREIEFGDVVFRKGDKVLQLVNRPNDNIFNGDIGVIVGIFWAKENALNKDVLVVDFEGNEITFTKQDMMELTHAYCTSIHKSQGSEFPIVIMPIVKQYFRMLQRPILYTGLTRAKTSLVLLGDPEAFDIGLKTNGQARLTQLCTLLKNYFNSEGHHHHHH	not soluble
